Data on 41 sequences can be found in the nanobody polyreactivity screen of Harvey et al. (2022).

This series in a line: yeast display, Sf9 membrane polyspecificity reagent, FACS + sequencing; frameworks hold sequencing errors. Put shortly:
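Genes from sorted yeast were amplified by colony PCR, read by MiSeq 2 × 250 sequencing and filtered on CDR length. These cells carried a synthetic nanobody library in Saccharomyces cerevisiae BJ5465 and were sorted by FACS into low and high (top ~1%) gates on anti-HA and streptavidin fluorescence. Polyreactivity is labelled according to the gate of origin.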
Take “QVQLVESGGGLVQAGGSLRLSCAASGRIFWDNDMGWYRQAPGKERELVAAISRRGGSTSYADSVKGRFTISRDNAKNTVYLQMYSLKPEDTAVYYCIVRTRWTRVRRYDYWGQGTQVTVSS”: the “polyreactivity (PSR sort gate)” value is given as “high polyreactivity”.

As for “QVQLVESGGGLVQAGGSLRLSCAASGRIFWDYAMGWYRKAPGKERELVAVITFSGDSTYYADSVKGRFTISRDNAKNTVYLQMNSLKPEDTAVYYCAAARAIRQFWYVATFEYWGQGTQVTVSS”, the “polyreactivity (PSR sort gate)” value is “low polyreactivity”.

Regarding “QVQLVESGGGLVQAGGSLRLSCAASGRIFWGYSMGWYRQAPGKERELVAAITSGGRTYYADSVKGRFTISRDNAKNTVYLQMNSLKPEDTAVYYCAAVYVPYYWLGRSRGLDYWGQGTQVTVSS”, the “polyreactivity (PSR sort gate)” value was “high polyreactivity”.

For “QVQLVESGGGLVQAGGSLRLSCAASGRIFWINDMGWSRQAPGKERELVAAIRSIGGSTYYADSVKGRFTISRDNGKNTVYLQMNSLKPEDTAVYYCAAKSSPKVRGRYYYWGQGTQVTVSS”, the “polyreactivity (PSR sort gate)” value is given as “low polyreactivity”.

On to “QVQLVESGGGLVQAGGSLRLSCAASGRIFWNYAMGWYRQAPGKERELVAAITWSGGSTYADSVNGRFTISRDNAKYTVYLQMNSLKPEDTAEYYCAAAYASYKFDYWGQGTQVTVSS”, for which the “polyreactivity (PSR sort gate)” value is on record as “low polyreactivity”.

In the case of “QVQLVESGGGLVQAGGSLRLSCAASGRIFWNYAMGWYSQAPGKERELVASINWSGGSTYYADSVKGRFTISRDNAKNTVYLQMNSLKPEDTAVYYCNKDGRVYLDHDYWGQGTQVTVSS”, the “polyreactivity (PSR sort gate)” value is listed as “low polyreactivity”.

“QVQLVESGGGLVQAGGSLRLSCAASGRIFWPYAMGWYRQAPGKERELVAVITSGTTTYYADSVKGRFTISRDNAKNTVYLKMNSLKPEDTAVYYCNIFSRARRYFEYDYWGQGTQVTVSS”: the “polyreactivity (PSR sort gate)” value is given as “low polyreactivity”.

Turning to “QVQLVESGGGLVQAGGSLRLSCAASGRIFWPYTMGGYRQAPGKETELVAVITYSGGSTYYADSVKGRFTISRDNAKNTVYLQMNSLIPEDTEVYYCNAGIRFYLHAHGYYWGQGTQVTVSS”, the “polyreactivity (PSR sort gate)” value is recorded as “high polyreactivity”.

As to “QVQLVESGGGLVQAGGSLRLSCAASGRIFWRNAMGWYRQAPGKERELVAAISSGGSTYYADSVKGRFTISRDNAKNTVYFQMNSLKPEDTAVYYCAARSSWRGVRYDHFERDYWGQGTQVTVSS”, the “polyreactivity (PSR sort gate)” value was “high polyreactivity”.

In the case of “QVQLVESGGGLVQAGGSLRLSCAASGRIFWRNAMVWYRQAPGKERELVAAISGSGGSTSYADSVKGRFTISRDNAKNTVYLQMNSLKPEDTAVYYCAAKYYYNWHRQGYDYWGQGTQVTVSS”, the “polyreactivity (PSR sort gate)” value is “high polyreactivity”.

As to “QVQLVESGGGLVQAGGSLRLSCAASGRIFWRYAMGWYRQAPGKERELVAAISSGGSTTYADSVKGRFTISRDNAKNTVYLQMNSLKPEDTAVYYCNARQYTRPYAFDYWGQGTQVTVSS”, the “polyreactivity (PSR sort gate)” value is given as “low polyreactivity”.

For “QVQLVESGGGLVQAGGSLRLSCAASGRIFWRYAMGWYRQAPGKERELVAGISASGGSTFYADSVKGRFTISRDNAKNTVYLQMNSLKPEDTAVYYCAAVSRYIWYSARESYYWGQGTQVTVSS”, the “polyreactivity (PSR sort gate)” value is given as “high polyreactivity”.

As to “QVQLVESGGGLVQAGGSLRLSCAASGRIFWSYAMGWYRQAPGKEREFVAVITWSGGSTYYADSVKGRFTISRDNAKNTVYLQMNSLKPEDTAVYYCADGQWWYQVRFDYWGQGTQVTVSS”, the “polyreactivity (PSR sort gate)” value is on record as “low polyreactivity”.

As to “QVQLVESGGGLVQAGGSLRLSCAASGRIFWSYAMGWYRQAPGKERELVAAINSGGSTNYADSVKGRFTISRDNAKNTVYLQMNSLKPEDTAVYYCAAGFYYVYVWLGEYWVQGTQVTVSS”, the “polyreactivity (PSR sort gate)” value is given as “low polyreactivity”.

For the sequence “QVQLVESGGGLVQAGGSLRLSCAASGRIFWTNAMGWYRQAPGKERELVAAISYNGASTFYADSVKGRFTISRDNAKNTVYLQMNSLKPEDTAVYYCNAYSSRYRYNYWGQGTQVTVSS”, the “polyreactivity (PSR sort gate)” value is listed as “high polyreactivity”.

As to “QVQLVESGGGLVQAGGSLRLSCAASGRIFWTYAMGWYRQAPGKERELVAAINSSGGTTYYADSVKGRFTISRDNAKNTVYLQMNSLKPEDTAVYYCSVRGRYYYRRPQISYDYGGQGTQVTVSS”, the “polyreactivity (PSR sort gate)” value is listed as “low polyreactivity”.

For the sequence “QVQLVESGGGLVQAGGSLRLSCAASGRIFWTYAMGWYRQAPGKERELVASITWSGGSTYYADSVKGRFTISRDNAKNTVYLQMNSLKPEDTAVYYCAADRHTYWYDYWGQGTQVTVSS”, the “polyreactivity (PSR sort gate)” value is recorded as “low polyreactivity”.

On to “QVQLVESGGGLVQAGGSLRLSCAASGRIFWVNVMGWYRQGPGKERELVAAITRGASTYADSVKGRFTISRDNAKNTVYLQLNSLKPEDTAVYYCAADSKRRSIRYDYWGQGTQVTVSS”, for which the “polyreactivity (PSR sort gate)” value is “high polyreactivity”.

Take “QVQLVESGGGLVQAGGSLRLSCAASGRIFWVYAMGWYRQAPGKERELVAAISLSGGRTYYADSVKGRFTISRDNAKNTVYLEMNSLKPEDTAVYYCNAVYPKRGGGRIVDYWGQGTQVTVSS”: the “polyreactivity (PSR sort gate)” value is “high polyreactivity”.

Consider “QVQLVESGGGLVQAGGSLRLSCAASGRIFWWYAMGWYRQAPGKERELVAVIDDSGGITYYADSVKGRFTISRDNAKNTVYLQRNSLKPEDTAVYYCANYYWGQGTQVTVSS”, for which the “polyreactivity (PSR sort gate)” value is on record as “low polyreactivity”.

As for “QVQLVESGGGLVQAGGSLRLSCAASGRIFWWYTMGWSRQAPGKERELVAAISGSGGSTYYADSVKGRFTISRDNAKNTVYLQMNSLKPEDTAVYYCAAYHRRRATPIHSGEYGYWGQGTQVTVSS”, the “polyreactivity (PSR sort gate)” value is “high polyreactivity”.

Take “QVQLVESGGGLVQAGGSLRLSCAASGRIFWYNAMGWYRQAPGKERELVAVITSGTSTYYADSVKGRFTISRDNAKNTVYLQMNSLKPEDTAVYYCAARYLSRYSERHYYYWGQGTQVTVSS”: the “polyreactivity (PSR sort gate)” value is “high polyreactivity”.

Regarding “QVQLVESGGGLVQAGGSLRLSCAASGRIFWYNAMGWYRQAPGKQRELVAAITSGGRTYYADSVKGRFTISRDNAKNTVYLQMNSLKPEDTAVYYCAATYPSYTYDYWGQGTQVTVSS”, the “polyreactivity (PSR sort gate)” value is given as “low polyreactivity”.

Regarding “QVQLVESGGGLVQAGGSLRLSCAASGRIFWYNGKGWYRQAPGKERELVAAISYSGGSTNYADSVKGRFTISRDNAKNTVYLQMNSLKPEATAVYYCAAPVPTYHTAWRFFRPDYGYWGQGTQVTVSS”, the “polyreactivity (PSR sort gate)” value is “high polyreactivity”.

Take “QVQLVESGGGLVQAGGSLRLSCAASGRIFWYNTMGWYRQAPGKERELVATITTGGRTNYADSVKGRFTISRDNAKNTVYLQMNSLKPEDTAVYYCNAVRGLWVTWRYYYWGQGTQVTVSS”: the “polyreactivity (PSR sort gate)” value is listed as “high polyreactivity”.

“QVQLVESGGGLVQAGGSLRLSCAASGRIFWYYAMGWYRQAPGKERELVASIRWGGGNTYYADSVKGRFTISRDNAKNTVYLQMNSLKPEDTAVYYCAKSKVSPSGDFYYWGQGTQVTVSS”: the “polyreactivity (PSR sort gate)” value is listed as “high polyreactivity”.

For “QVQLVESGGGLVQAGGSLRLSCAASGRIFWYYVMGWYRQAPGKEREFVASISSGGSTYYADSVKGRFTISRDNAKNTVYLQMNSLKPEDTAVYYCNAYVYGQRVWYDYWGQGTQVTVSS”, the “polyreactivity (PSR sort gate)” value was “high polyreactivity”.

As to “QVQLVESGGGLVQAGGSLRLSCAASGRIFYANAMGWYRQAPGKERELVAAISSGGSTYYADSVKGRFTISRDNAKNTVYLQMNSLKPEDTAVYYCAKDTGSRTDSWTVWHDYWGQGTQVTVSS”, the “polyreactivity (PSR sort gate)” value is on record as “low polyreactivity”.

Turning to “QVQLVESGGGLVQAGGSLRLSCAASGRIFYANSMGWYRQAPGKERELVASISARGGYTYYADSVKGRFTISRDTAKNTVYLQMNSLKPEDTAVYYCAAEYLAVSGYWYAYWGQGTQVTVSS”, the “polyreactivity (PSR sort gate)” value is “high polyreactivity”.

Turning to “QVQLVESGGGLVQAGGSLRLSCAASGRIFYANTMGWYRKATGKERELVAAISSGGSTTYADSVKGRFTISRENAKNTVYLQMNSLKPEDPAVYYCATNTWYHYQRMYYWGQGTQVTVSS”, the “polyreactivity (PSR sort gate)” value is listed as “high polyreactivity”.

With “QVQLVESGGGLVQAGGSLRLSCAASGRIFYAYAMGWYRQAPGKERELVATITGIGGSTYADSVKGRFTISRDNAKNTVYLQMNSLKPEDTAVYYCNAAKWLTSGGLDYWGQGTQVTVSS”, the “polyreactivity (PSR sort gate)” value is on record as “high polyreactivity”.

Regarding “QVQLVESGGGLVQAGGSLRLSCAASGRIFYDYTMGWYRQAPVKERELVATITSGGNTNYADSVKGRFTISRDNAKNTVYLQMNSLKPEDTEVYYCNADFGYWWDGSRYDYWGQGTQVTVSA”, the “polyreactivity (PSR sort gate)” value is on record as “low polyreactivity”.

With “QVQLVESGGGLVQAGGSLRLSCAASGRIFYFNAMGWYRQAPGKERELVAAMSWTGGSTYYADSVKGRFTISRDTAKNTVYLQMNSLKPEDTAVYYCAADRALSISLYPIASFDYWGQGTQVTVSS”, the “polyreactivity (PSR sort gate)” value is “low polyreactivity”.

Take “QVQLVESGGGLVQAGGSLRLSCAASGRIFYFNARGWYRQAPGKERELVAAITSGGSTYYADSVKGRFTISRDNAKNTVYLQMNSLKPEDTAVYYCATDWPHWRYVYWFDYWGQGTQVTVSS”: the “polyreactivity (PSR sort gate)” value was “low polyreactivity”.

For the sequence “QVQLVESGGGLVQAGGSLRLSCAASGRIFYFYAMGWYRQAPGKEMELVAAISTSGGSTYYADSVKGRFTISRDNAKNTVYLQMNSLKPEDTAVYYCNADGYQSRWYYYNYDYWGQGTQVTVSS”, the “polyreactivity (PSR sort gate)” value is “low polyreactivity”.

As for “QVQLVESGGGLVQAGGSLRLSCAASGRIFYFYAMGWYRQAPGKERELVAAISRRGGTTNYADSVKGRFTISRDNAKNTVYLQMNSLKPEDTAVYYCAADYQSVGGAEYDYWGQGTQVTVSS”, the “polyreactivity (PSR sort gate)” value is given as “high polyreactivity”.

Turning to “QVQLVESGGGLVQAGGSLRLSCAASGRIFYFYPMGWYRQAPGKERELVAAISTSGGSTYYADSVKGRFTISRDNAKNTVYLQMNSLKPEDTAVYYCAARFRYYVSEYDYWGQGTQVTVSS”, the “polyreactivity (PSR sort gate)” value is on record as “low polyreactivity”.

Consider “QVQLVESGGGLVQAGGSLRLSCAASGRIFYGKAMGWYRQAPGKERELVAGITTSGGGTYYADSVKGRFTISRDNAKNTVYLKMNSLKPEDTAVYYCAAKYRRYRDIQDGGYWGQGTQVTVSS”, for which the “polyreactivity (PSR sort gate)” value is listed as “low polyreactivity”.

As to “QVQLVESGGGLVQAGGSLRLSCAASGRIFYGNAMGWYRQAPGKERELVAAITRGVSTYYADSVKGRFTISRDNAKNTVYLQMNSLKPEDTAVYYCAKDRRVRMDSWGQGTQVTVSS”, the “polyreactivity (PSR sort gate)” value was “low polyreactivity”.

Turning to “QVQLVESGGGLVQAGGSLRLSCAASGRIFYGNTMGWSRQAPGKERELVAAISLRGGSTYYADSVKGRFTISRDTAKNTVSLQMNSLKPEDTAVYYCAATGGRGPRRYYWGQGTQVTVSS”, the “polyreactivity (PSR sort gate)” value was “high polyreactivity”.

As to “QVQLVESGGGLVQAGGSLRLSCAASGRIFYGNTMGWYRQAPGKERELVAAISRSGGSTYYADSVKGRFTISRDNAKNTVYLQMNSLKPEDTAVYYCNARYYRKYDYWGQGTQVTVSS”, the “polyreactivity (PSR sort gate)” value is “high polyreactivity”.
